Columns and labels:
[1] = Thermal forced aggregation (SEC); format: physicochemical; settings: Table 11, 24 hours, PBS
Description: To assess the aggregation propensity of variant CD80-Fc fusion proteins, 1 mg/ml of CD80-Fc fusion protein was incubated in PBS at increasing temperatures for 24 hours. The samples were analyzed by SEC on an Agilent 1100 (Agilent Technologies, Germany) HPLC system using a YMC-Pack Diol-200 (YMC, Germany) analytical size exclusion chromatography column and PBS supplemented to 400 mM NaCl as running buffer. % aggregation was calculated from the loss of intact peak area. […] ND=Not Determined.

[2] = test system: human peripheral blood mononuclear cells (PBMCs); assay: Human PBMC IL-2 production assay with plate-bound anti-CD3; format: cell-based; settings: average of 5 PBMC donors; 1 μg/ml anti-CD3; 48 hours
Description: The ability of the variant CD80-Fc fusion proteins to promote IL-2 production in the context of anti-CD3 (to stimulate T cell receptor signaling) in human peripheral blood mononuclear cells (PBMCs) was tested. To bind anti-CD3 antibody on the plate, the anti-human-CD3 (clone HIT3a, BD Pharmingen) was incubated in 96-well plates at 4° C. overnight at 1 μg/ml unless otherwise noted. Human PBMCs were isolated from freshly collected human whole blood using Ficoll-Paque Plus. Human PBMCs (100,000 per well) were incubated with plate-bound anti-CD3 and the indicated concentrations of soluble CD80-Fc fusion protein in RPMI+10% HI-FBS, pen/strep, sodium pyruvate and non-essential amino acids. After 48 hours incubation, supernatants were collected and IL-2 measured by the Quantikine human IL-2 ELISA kit from R&D.
Additional CD80-Fc fusion proteins were tested in the same PBMC assay, at the concentration of anti-human-CD3 (clone HIT3a, BD Pharmingen) noted.

[3] = test system: peripheral blood mononuclear cells (PBMC); assay: RESTORE cytokine release assay in absence of TCR stimulation; format: cell-based, human; parameters: IFNγ: unit not given beside the values; settings: Table 20
Description: The ability of variant CD80-Fc fusion proteins to promote cytokine release in the absence of TCR stimulation was assessed in the RESTORE (RESetting T cells to Original Reactivity) assay (Römer et al, Blood, 2011). Freshly isolated peripheral blood mononuclear cells (PBMC) from whole blood of several healthy donors were cultured for 48 hours at […] within RPMI1640 media supplemented with 10% autologous plasma, 10 mM HEPES, 1× GlutaMAX, 1× PenStrep, beta2-mercaptoethanol, NEAA and sodium pyruvate. Following the 48-hour incubation, PBMC were pelleted and resuspended at a final concentration of 10^6/ml with indicated soluble drug. Treatment was allowed for 48 hours then supernatant was harvested and assessed in IL-2 and IFNγ ELISA according to manufacturer's protocol (BioLegend).
Positive controls included CD28 superagonist anti-CD28 clone TGN1412 as IgG1 and IgG4 isotypes and anti-CD3. […] Values shown are the average of 3 technical replicates. D=Donor.

[4] = test system: CT26 murine colorectal carcinoma tumor cells; assay: CT26 murine colorectal carcinoma model; format: in vivo, mouse; settings: for Day 10 tumor volume: Days 0 and 3; for % tumor growth inhibition: Day 10
Description: CT26 murine colorectal carcinoma tumor cells (1×10^6) were subcutaneously implanted in the hind flank of female Balb/c mice. When tumors reached ˜100 mm3 (Day 8), mice were randomized. PBS vehicle control or variant CD80-Fc fusion proteins were dosed intravenously at 0.1 and 1.0 mg/kg on Days 0 and 3. Tumor volume was determined by caliper measurements obtained in 2 dimensions and calculated as width^2×length/2. Error bars are depicted as ±SEM.
IFNγ ELIspot was used to measure tumor-reactive T cells in the spleen in mice treated with CD80-Fc fusion proteins at a 1 mg/kg dose.
Cytotoxic CD8^+ T cells are responsible for killing cancer cells and the measurement of CD8^+ T cells that have infiltrated tumors commonly correlates with efficacy for immune-oncology therapies. For all in vivo studies, tumors were collected ˜1 week after the first dose and dissociated by mincing, followed by incubation in an enzymatic digestion cocktail and homogenization. The resulting cell suspension was filtered and washed, and single cells were stained with antibodies to CD45, CD8, and a viability dye to detect tumor-infiltrating lymphocytes (TILs) by flow cytometry. Data were acquired on a BD LSRFortessa flow cytometer or a Cytek Aurora spectral flow cytometer. Table 31 and FIG. 18 show the amount of tumor-infiltrating CD8+ T cells expressed as a percentage of total immune cells (CD45+). Each value is the average of n=4 mice per group. Treatment with all variant CD80-Fc fusion proteins led to increase in CD8+ TILs in various tumor models.

[5] = test system: B16F10 murine melanoma cells; assay: B16F10 melanoma model, combination with αPD1 antibody; format: in vivo, mouse; settings: CD80-D90Q-E23C-A26C-Fc 3 mg/kg and/or αPD1 Ab 10 mg/kg
Description: B16F10 murine melanoma cells (0.5 million) were subcutaneously implanted in the hind flank of female C57BL/6J mice. When tumors reached ˜100 mm3, mice were randomized and dosed with PBS vehicle control, 3 mg/kg CD80-D90Q-E23C-A26C-Fc, and or 10 mg/kg murine αPD1 antibody. CD80-D90Q-E23C-A26C-Fc was dosed on Days 0 and 3, αPD1 antibody was dosed on Days 0, 3 and 6. Tumor volume was determined by caliper measurements obtained in 2 dimensions and calculated as width^2×length/2. Error bars are depicted as ±SEM

[6] = Pharmacokinetics in huFcRn transgenic mice; settings: 0.1 mg/kg IV
Description: PK of CD80-Fc fusion proteins was also assessed in transgenic mice expressing the human neonatal Fc receptor (huFcRn) a-chain transgene under the control of its natural human promoter. Female mice were dosed intravenously with CD80-Fc fusion proteins at 0.1 mg/kg, and blood was collected at the timepoints indicated on the graph. Levels of CD80-Fc in mouse plasma were measured as described above.

CD80-D90Q-E23C-A26C-Fc: disulfide stabilized variant CD80-Fc fusion protein (D90Q, E23C, A26C)
% aggregation ([1]; 40° C.): 0.0% | % aggregation ([1]; 45.3° C.): 0.1% | % aggregation ([1]; 49.4° C.): 0.1% | % aggregation ([1]; 54.9° C.): 0.5% | % aggregation ([1]; 59.1° C.): 26.2% | % aggregation ([1]; 64° C.): 68.8% | EC50 [2]: 24.2 ± 10 nM | IFNγ ([3]; D222, 1 μg/ml): 4.0 | IL-2 ([3]; D222, 1 μg/ml): 7.0 | IFNγ ([3]; D222, 10 μg/ml): 4.7 | IL-2 ([3]; D222, 10 μg/ml): 11.0 | IFNγ ([3]; D281, 1 μg/ml): 5.0 | IL-2 ([3]; D281, 1 μg/ml): 2.0 | IFNγ ([3]; D281, 10 μg/ml): 6.3 | IL-2 ([3]; D281, 10 μg/ml): 2.0 | IFNγ ([3]; D462, 1 μg/ml): 7.3 | IL-2 ([3]; D462, 1 μg/ml): 1.7 | IFNγ ([3]; D462, 10 μg/ml): 6.0 | IL-2 ([3]; D462, 10 μg/ml): 2.0 | IFNγ ([3]; D547, 1 μg/ml): 3.3 | IL-2 ([3]; D547, 1 μg/ml): 4.3 | IFNγ ([3]; D547, 10 μg/ml): 5.0 | IL-2 ([3]; D547, 10 μg/ml): 12.0 | Number of tumor regressions ([4]; 0.1 mg/kg): 2/10 | Day 10 tumor volume ([4]; 0.1 mg/kg IV): 388.9 mm^3 | % tumor growth inhibition ([4]; 0.1 mg/kg): 67.53% | Number of tumor regressions ([4]; 1 mg/kg): 9/10 | Day 10 tumor volume ([4]; 1 mg/kg IV): 197.8 mm^3 | % tumor growth inhibition ([4]; 1 mg/kg): 83.49% | # IFNγ-producing spots (tumor-reactive T cells in spleen) ([4]; 1 mg/kg, average of n = 4 mice): 523.1875 | Day 10 tumor volume [5]: 1208.8 mm^3 | % tumor growth inhibition ([5]; Day 10): 26.3% | AUC [6]: 88000 ng·h/mL | CL [6]: 15.8 mL/day/kg | T1/2 [6]: 148 h | Vdss [6]: 0.131 L/kg | Cmax ([6]; average of 3 animals): 1400 ng/mL

From patent US20240209061A1, “FUSION PROTEINS AND USES THEREOF” (Pfizer Inc., priority 2020, published 2024)
